Laboratory results as given in patent publication US12012457 (SYNTHEKINE, dated 2024).
Numbering of substitutions follows the chain as printed.

T1: extracellular domain of human IL23R (hIL23R ECD) (human, UniProt Q5VWK5 24-355)
T1 construct: also called hIL-23 ECD antigen
T1 sequence: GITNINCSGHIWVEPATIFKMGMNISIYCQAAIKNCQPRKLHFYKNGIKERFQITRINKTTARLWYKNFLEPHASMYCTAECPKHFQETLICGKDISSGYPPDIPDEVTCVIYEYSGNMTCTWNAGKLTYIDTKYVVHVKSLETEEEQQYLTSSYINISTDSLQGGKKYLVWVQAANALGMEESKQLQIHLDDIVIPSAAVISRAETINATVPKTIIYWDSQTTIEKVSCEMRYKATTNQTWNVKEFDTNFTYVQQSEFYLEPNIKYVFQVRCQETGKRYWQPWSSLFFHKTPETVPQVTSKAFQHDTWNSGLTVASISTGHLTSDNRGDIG

B1: hIL23R VHH3 (VHH)
VHH: QVQLQESGGGSVQAGESLRLSCAASGYTYCTYDMTWYRQAPGKKREFVSGIHSDGTTSYADSVKGRFTISQDNAENTVYLQMNSLKPEDTAMYYCKTDPIATITRRCDSYWGQGTQVTVSS
B2: hIL23R VHH19 (VHH)
VHH: QVQLQESGGGSVQAGGSLRLSCAASGYTSCSYDMSWYRQAPGKKREFVSAIHSDGTTSYADSMKGRFTISQDNAKNTVYLQMNSLKPEDTAMYYCKTDPNYSDHVCPPYWGRGTQVTVSS
B3: hIL23R VHH15 (VHH)
VHH: QVQLQESGGGSVQAGGSLRLSCAASPGTYTSRYMGWFRQAPGKEREGVATIWPAGGNTVYADSVKGRFTISQDGAKKTVYLQMNSLKPEDTAMYYCAAAKYGGTSLAPYTYNYWGQGTQVTVSS
B4: hIL23R VHH2 (VHH)
VHH: QVQLQESGGGSVQAGGSLRLSCAASGYTYCSYDMSWYRQAPGKKREFVSSFNSDGSTSYADSVKGRFTISQDNAKNTVYLQMNSLKPEDTAMYYCKTDPHADWGAPCGGDYWGQGTQVTVSS
B5: hIL23R VHH4 (VHH)
VHH: B4 VHH with Y27S, S31T, S35T, K44R, S50A, F51I, H100N, A101S, D102G
B6: hIL23R VHH10 (VHH)
VHH: QVQLQESGGGSVQAGGSLKLSCAASGYTYCNYDIAWYRQAPGKERKFVSAIASDGSTSYADSVKGRFTISQDNAKNTVYLQMNSLKPEDTAMYYCKTDPIATMTRRCDPYWGQGTQVTVSS
B7: hIL23R VHH18 (VHH)
VHH: B6 VHH with K19R, S21A
B8: hIL23R VHH11 (VHH)
VHH: B1 VHH with E16G, T31S, G50A, H52D, T56S, E75K, T104S
B9: hIL23R VHH7 (VHH)
VHH: B6 VHH with K19R, S56I, A101S, M103I, R106I
B10: hIL23R VHH16 (VHH)
VHH: B6 VHH with Q13E, S17A, K19T, A23V
B11: hIL23R VHH13 (VHH)
VHH: QVQLQESGGGSVQAGGSLRLSCAASGYTYCSYDMKWYRQAPGKKREFVSAIDSDGSTSYADSVKGRFTISQDNAKNTVYLQMNSLKPEDTAMYYCKTEGTIPVGVCPNYWGQGTQVTVSS
B12: hIL23R VHH8 (VHH)
VHH: B11 VHH with G10D, K44E, A50G, T57I, V105A
B13: hIL23R VHH14 (VHH)
VHH: B11 VHH with S11L, A14P, I101V
B14: hIL23R VHH12 (VHH)
VHH: QVQLQESGGGSVQAGGSLRLSCAASGYTSSSRCMGWFRQAPGKEREGVARIYTPTRTTWYADSVKGRFTISQDNAKNTVYLEMASLKPEDTAKYFCAAGASCAVDLFSYWGQGTQVTVSS
B15: hIL23R VHH5 (VHH)
VHH: QVQLQESGGGSVQAGGSLRLSCAASGYTYCSYDMSWYRQAPGKKREFVSAIASDGSTSYADSLKGRFTISQDNAKNTVYLQMNSLKPEDTAMYYCKTDPHVQSSGGYCPPYWGQGTQVTVSS
B16: hIL23R VHH6 (VHH)
VHH: QVQLQESGGGLVQPGGSLRLSCAASGYTYCSYDMGWYRQAPGKKRKFVSSINSDGTTSYADSVKGRFTISQDNAKNTVYLQMNSLKPEDTAMYYCKTDPQTRPGKPCADYWGQGTQVTVSS
B17: hIL23R VHH9 (VHH)
VHH: B16 VHH with P14A, G35S, K44E
B18: hIL23R VHH17 (VHH)
VHH: QVQLQESGGGSVQAGGSLRLSCTASGYTFSTMKYMGWFRQAPGKEREGVAAIWIAAGNTYYADSVKGRFTISQDNTKNTVYLQMNSLKPEDTALYYCAAARYGFVPSTWYLPERYNYWGQGTQVTVSS

Molecular target: T1, extracellular domain of human IL23R …
Assay: periplasmic extract ELISA (PE-ELISA), 96-well plate, colorimetric

binding result	Binder
binds	B1
binds	B2
binds	B3
binds	B4
binds	B5
binds	B6
binds	B7
binds	B8
binds	B9
binds	B10
binds	B11
binds	B12
binds	B13
binds	B14
binds	B15
binds	B16
binds	B17
binds	B18
